From the nanobody polyreactivity screen of Harvey et al. (2022)

Experiment: yeast display, Sf9 membrane polyspecificity reagent, FACS + sequencing; frameworks hold sequencing errors
Outline: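 Synthetic nanobody libraries on Saccharomyces cerevisiae BJ5465 were galactose-induced for 36–48 hours, stained 1 hour at 4 °C with 10% biotinylated, detergent-solubilized Sf9 membrane reagent and enriched on streptavidin microbeads. FACS then separated cells into low and high (top ~1%) gates by anti-HA (expression) and streptavidin (reagent binding) fluorescence. Genes were colony-PCR amplified, MiSeq 2 × 250 sequenced and CDR-length filtered. A clone's polyreactivity label is that of its gate of origin.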

Row | Sequence | polyreactivity (PSR sort gate)
1 | QVQLEESGGGLVQAGGSLRLSCAASGSIFFWYAMGWSRQAPGKERELVAAISSSGSTNYADSVKGRFTISRDNAKNTVYLQMNSLKPEDTAVYYCATRKYVYYPVQYEFWGQGTQVTVSS | high polyreactivity
2 | QVQLVESGGGLVQAGGSLRLSCAASGSTFPGNAMGWYRQAPGKERELVASIRRSGGSTYYADSVKGRFTISRDNAKNTVYLQMNSLKPEDTAVYYCAKRTFLVSGPRSYGCYGVYYWGQGTQVTVSS | high polyreactivity
3 | QVQLVESGGGLVQAGGSLRLSCAASGLTFHDYAMGWYIQAHVKERELVAGINSGGSTNYADSVKGRFTISRDNAKNTVYLQMNSLKPEDTAVYYCARGPQYDEGEYWGQCTQVTVSS | low polyreactivity
4 | QVQLVESGGGLVQAGGSLRLSCAASGRIFGLYAMGWYRQAPGKERELVAAITDSDGSTYYADSVKGRFTISRDNAKNTVYLQMNSLKPEDTAVYYCNKRLPLIRTSWAYDYWGQGTQVTVSS | low polyreactivity
5 | QVQLVESGGCLVQAGGSLRLTCAASGRIFDLYTMGWYRQATGIERELVAGIYGNGDGTYADSVKGLFTISRDNAKNPVYLQMNSLKPEDTAVYYCAADGIYIYHPYTRFDYCGQGTQVTVSS | low polyreactivity
6 | QVQLVESGGGLVQAGGSLRLSCAASGYTFSWYAMGWYRQAPRKERELVAGIDTSGGSTYYADSVKGRFTISRDNAKNTVYLQMNSLKPEDTAVYYCAAGLLWYSWGFWYYEYGYWGQGTQVTVSS | low polyreactivity
7 | QVQLVESGGGLVQAGGSLRLSCAASISSINAMGWYRQAPGKERELVAAIRWSGSSTYYADSVKGRFTISRDNAKNTVYLQMNSLKPEDTAVYYCAARYVRVGYDYWGQGTQVTVSS | high polyreactivity
8 | QVQLVESGGGLVQAGGSLRLSCAASGSTFNYYDMGWYRQAPGKERELVATITSRGRSTYYADSVKGRFTISRDNAKNTVYLQMNSLKPVDTAVYYCAADWRAYIRRAAYSPFDYWGQGTQVTVSS | low polyreactivity
9 | QVQLVETGGGLVQAGGSLRLSCAASGFIFEFYAMGWYRQAPGKERELVAAITGRGGSTYYADSVKGRFTISRDNAKNTVYLQMNSLKPEDTAVYYCAASIGGQVPGFGWYDYWGQGTQVTVSS | low polyreactivity
10 | QVQLVESGGGLVQAGGSLRLSCAAYGFTFTRKAMGWYRQAPGKERELVAAISGSGGSTYYADSVKGRYTISRDNAKNTVYLQMNSLKPADTAVYYCAKDGWWRKYDYWGQGTQVTVSS | high polyreactivity
11 | QVQLVESGGGLVQAGGSLRLSCAASGSTFGSNAMGWYRQAPGKESELVAAIRWSGGSTYYADSVKGRFTISRDNAKNTVYLQMNSLKPEDTAVYYCNAVYGRQYRGYNYKYYYWGQGTQVTVSS | high polyreactivity
12 | QVQLVESGGGLVQAGGSLRLSCAASGRIFGLYAMGWYTQAPGKERELVAAYADSVKGRFTISRDNAKNTVYLQMNSRKPVDTAVYYCAKGPLYAGSTIDLRDFNYWGQGTQVTVSS | low polyreactivity
13 | QVQLVESGGGLVQAGGSLRLSCAASGLTFVDYAMGWYRQAPGKERELVAAITSSGGSITYYADSVKGRFTISRDNAKNTVYSQMNSLKPEDTAVYYCNADYGIYTDSFRGPDYESWGQGTQVTVSS | low polyreactivity
14 | QVQLVESGGGLVQAGGSLRLSCAASGFTFVRNAMGWYRQAPGNERELVAALSTSAGSTYYADSVKGRFTISRDNAKNTVYLQMNSLKPEDTAVYYSAASASRYFVLAASGGIRYYYWGQGTQVTVSS | high polyreactivity
15 | QVQLVESGGGLVQAGGSLRLSCAASGSTFTRNAMGWYRQAPGKERELVAAISGGGGGSTYYADSVKGRFTISRDNAKNTVYLQMNSLKPEDTAVYYCAARAGRYWAAYGYWGQGTQVTVSS | high polyreactivity
16 | QVQLVESGGGLVQAGGSLRLSCAASGSIFLQNAMGWYRQAPGKERELVAAITNGGSTNYADSVKGRFTISRDNAKNTVYLQMNSLKPEDTAVYYCAAYPLYTGSYDRGGYWGQGTQVTVSS | low polyreactivity

Row | Sequence | polyreactivity (PSR sort gate)
17 | QVQLVESGGGLVQAGGSLRLSCAASGFILYYYAMGWYRQAPGKERELVASISRRGGSTYYADSVKGRFTISRDNAKHTVYLQMNSLKPEDTAVYYCNAYSTYIKYDYWGHGTQVTVSS | high polyreactivity
18 | QFQLVESGGGLVQAGGSLPLSCAASGSIFLWTAMGWYRQAPGKERELVAAITLRGGSTYYADSLKGRFTISRDNAKYAVYLQLNSLKPEDTAVFYCAADVFLLYDYWGQGTQVTVSS | low polyreactivity
19 | QGQLVESGGGLVQAGGSLRLSCAASGSISTYYAMGWYRQAPGKERELVAAISSSGVRTYYADSVKGRFTIARDNAKNTVYLQMNSLKREDTAVSYCAAEVYYLYFYIMDYWGQGTQVTVSS | high polyreactivity
20 | QVQLVESGGGLDQAGGSLRLSCAASGSIFNYKAMGWYRQAPGKEREMVAGISYHGDSTYADSVKGPFTISRDNAKNTVYLQMKSLKPEDTAVYYCAALGPDDWLWAGDYWGQGTQVTVSS | low polyreactivity
21 | QVQLVESGGGLVQAGGSLRLSCAASGSIFFLYAMGWYRQAPGKERELVAAISGGGGSTYYADSVKGRFTISRDNAKNTVYLQMNSLKPEDTAVYYCDALSKTRGGYWGQGTQVTVSS | high polyreactivity
22 | QVQLVESGGGLVQAGGSLRLSCAASGFIFWHYAMGWYRQAPGKERELVAAISWSGGRTYYADSVKGRFTISRDNAKNTVYLQMNSLKPEDTAVYYCARSKRVTPYEYDYWGQGTQVTVSS | high polyreactivity
23 | QVQLVESGGGLVQAGGSLRLSCAASGRTFGYNAMGWYRQAPGKEREFVAAITWSGGRTYYADSVKGRFTISRDNAKNTVYLQMISLKPEDTAVYYCAAVLGRPLHGVAYGYWGQGTQVTVSS | low polyreactivity
24 | QVQLVESGGGLVQAGGSLRLSCAASGIIFTSNTMGWYRQAPGKEREFVASINWNGSSTYADSVKGRFTISRDNAKNTVFLQMNSLKPEDTAVYDCNADYYRNSVQFSLYDYWGHGTQVTVSS | low polyreactivity
25 | QVQLVESRVGLVQAGGSLRLSCAASGFTFGHYVMGWYRQAPGKERELVAAITLSGGGTYYADSVKGRFTISRDNAKNTVYLQMNSLKPEDTAVYYCAAVGGEHAKKTYSRYKVDYWGQGTQVTVSS | low polyreactivity
26 | QVQLVESGGGLVQAGRSLRLSCAASGITFSRNDMGWYRQAPGKEMQLVAAISRSGGRTYYADSVKGRFTLSRDNAKNTVYLQMNCLNPEDTAVYYCNRDIGGTSVLDDYWGQGTQVTVSS | low polyreactivity
27 | QVQLVESGGGLVQAGGSLRLSCAASGRIFYSYAMGWYRQAPGKERELVAAITVSGGSTFYADSVKGRFTISRDNAKNTVYLQMNSLKPEDTAVYYCAATRFSQYDWGQGTQVTVSS | high polyreactivity
28 | QDQLVESGVGLVQAGGSLRLSCAASGRTYFSHTMGWYRQAPGKERQLVAAITRSGGTTYYADSVKGRFTISRDNAKNTVYLQMNSLKPEDTAVYYCAARTSYAFYYPRDYWGQGTQVTVSS | high polyreactivity
29 | QVQLVESGGGLVQAGGSLRLSCAASGRTFDDNAMGWYRQAPGKEREFVADIDWSGGDTYYADSVKGRLTISRDNAKNTVYLQMNSLKPEDTAVYYCAARPIISVGRSRYDYWGQGTQVTVSS | high polyreactivity
30 | QVQRVESAGGLVQAGGSLRLSCAPSGRILPSNAMGWYRQAPGKERELVAGITSGGSTDYADSVKGRFTISRDNAKNTVYIQMHSLKPEDTAVYYCAADSRRYGVRFDYWGQGTQVTVSS | low polyreactivity
31 | QVQLVESGGGLVQAGGSLRLSCAASGRNFYGNAMGWYRQAPGKERELVAAISSGTSTNYADSVKGRFTISRDNAKNTVYLQMNSLKPEDTAVYYCAAGSYSRYLYSLYFDFDYWGQGTQVTVSS | low polyreactivity
